From publication PMC5759264

Target: Recombinant human His-tagged CEACAM5 extracellular domain (human) (UniProt P06731)
Assay: BLI

Chain of UniProt P06731 (P06731 35-702): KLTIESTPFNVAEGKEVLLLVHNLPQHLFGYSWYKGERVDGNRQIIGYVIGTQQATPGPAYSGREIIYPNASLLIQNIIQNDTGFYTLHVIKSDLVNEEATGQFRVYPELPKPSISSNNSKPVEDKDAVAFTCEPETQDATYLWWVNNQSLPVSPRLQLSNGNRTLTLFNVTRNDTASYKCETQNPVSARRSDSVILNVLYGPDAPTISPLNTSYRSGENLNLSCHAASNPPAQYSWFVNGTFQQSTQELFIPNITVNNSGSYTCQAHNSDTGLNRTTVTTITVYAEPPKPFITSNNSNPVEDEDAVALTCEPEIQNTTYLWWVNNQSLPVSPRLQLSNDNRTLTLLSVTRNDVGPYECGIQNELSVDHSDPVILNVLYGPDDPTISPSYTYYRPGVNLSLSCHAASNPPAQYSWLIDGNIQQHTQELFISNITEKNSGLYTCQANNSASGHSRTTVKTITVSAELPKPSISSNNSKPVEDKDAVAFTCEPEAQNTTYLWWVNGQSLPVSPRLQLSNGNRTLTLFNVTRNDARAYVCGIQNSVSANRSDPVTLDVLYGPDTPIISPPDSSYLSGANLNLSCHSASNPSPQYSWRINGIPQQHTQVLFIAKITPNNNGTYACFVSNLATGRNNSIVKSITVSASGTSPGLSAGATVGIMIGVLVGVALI

| Substance | Kd |
| --- | --- |
| common light chain IgG variant 4G07 (from UniProt P01624) | 0.6 nM |
| common light chain IgG variant 4F02 (from UniProt P01624) | 2.5 nM |
